The results in this text go back to paper PMC6166240 (Cell reports, 2018).

The assay has as its target T1, Extradenticle (Exd), residues 237-310 of isoform A (homeodomain and ten further residues) (Drosophila).
T1 chain: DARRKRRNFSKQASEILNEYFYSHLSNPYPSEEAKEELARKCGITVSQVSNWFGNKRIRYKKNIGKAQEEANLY
Kind of assay: crystal structure.

B1: Abdominal-B (AbdB), residues 146-229 of isoform A (W motif, linker and homeodomain) (domain or fragment)
chain: not shown
Consider B1, for which the binding result is on record as “binds”.
